Reference: patent US8461305B2, “L-fucose α1→6 specific lectin” (J-Oil Mills, Inc., priority 2008, dated 2013)

T1: Invertase (yeast) (Saccharomyces cerevisiae, UniProt P00724)
T1 sequence (P00724 20-532): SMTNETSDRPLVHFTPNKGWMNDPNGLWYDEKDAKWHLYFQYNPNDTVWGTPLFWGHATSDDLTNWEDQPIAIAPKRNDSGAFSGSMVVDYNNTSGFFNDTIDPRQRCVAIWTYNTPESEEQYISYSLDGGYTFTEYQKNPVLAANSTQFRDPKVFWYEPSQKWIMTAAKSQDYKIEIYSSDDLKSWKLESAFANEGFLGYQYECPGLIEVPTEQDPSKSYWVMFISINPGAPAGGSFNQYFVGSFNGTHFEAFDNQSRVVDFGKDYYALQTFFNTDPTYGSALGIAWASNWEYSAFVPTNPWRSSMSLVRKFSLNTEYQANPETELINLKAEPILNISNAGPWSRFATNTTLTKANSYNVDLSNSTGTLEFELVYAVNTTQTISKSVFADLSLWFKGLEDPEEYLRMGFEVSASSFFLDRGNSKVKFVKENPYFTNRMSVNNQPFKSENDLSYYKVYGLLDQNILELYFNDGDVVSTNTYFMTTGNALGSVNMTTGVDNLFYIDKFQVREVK

B1: Aleuria aurantia lectin (protein)
chain: PTEFLYTSKIAAISWAATGGRQQRVYFQDLNGKIREAQRGGDNPWTGGSSQNVIGEAKLFSPLAAVTWKSAQGIQIRVYCVNKDNILSEFVYDGSKWITGQLGSVGVKVGSNSKLAALQWGGSESAPPNIRVYYQKSNGSGSSIHEYVWSGKWTAGASFGSTVPGTGIGATAIGPGRLRIYYQATDNKIREHCWDSNSWYVGGFSASASAGVSIAAISWGSTPNIRVYWQKGREELYEAAYGGSWNTPGQIKDASRPTPSLPDTFIAANSSGNIDISVFFQASGVSLQQWQWISGKGWSIGAVVPTGTPAGW
B2: Lens culinaris agglutinin (protein)
chain 1: TETTSFSITKFSPDQKNLIFQGDGYTTKGKLTLTKAVKSTVGRALYSTPIHIWDRDTGNVANFVTSFTFVIDAPSSYNVADEFTFFIAPVDTKPQTGGGYLGVFNSKEYDKTSQTVAVEFDTFYNAAWDPSNKERHIGIDVNSIKSVNTKSWNLQNGERANVVIAFNAATNVLTVTLTYP
chain 2: VTSYTLNEVVPLKDVVPEWVRIGFSATTGAEFAAHEVHSWSFHSELGGTSSS

Columns and labels:
Experiment in all cases: detection of glycoprotein by Western blotting with biotin-labeled lectin
Format in all cases: binding
Set-up in all cases: key: ◯: Detected; X: Not detected
Thyroglobulin (pig) = Thyroglobulin (pig) (Sus scrofa, UniProt F1RRV3); conditions: (1) Thyroglobulin (pig), N-linked glycan having α1→6 L-fucose; biotin-labeled lectin 2 μg/ml
Experimental: (§1) PTL of Example 1, SRL of Example 2, AAL of Comparison Example 1, AOL of Comparison Example 2, and LCA of Comparison Example 3 all subjected to biotin-labeling.
(§2) Lectin was measured and was dissolved in 0.1 M sodium hydrogen carbonate solution (5 mg/ml). Then, a biotinylation reagent was dissolved in dimethyl sulfoxide and the resultant solution was added to lectin solution to cause reaction therebetween. Then, the reactant was […] and lyophilized, thereby obtain biotin-labeled lectin.
(§3) The solution obtained by dissolving the glycoprotein sample in 10 mM phosphate buffered saline (pH 7.4, PBS) at 2 mg/ml was dispensed to a microtube by a unit of 18 μl. 6 μl of SDS process liquid (Sample Buffer Solution (2ME−); Wako Pure Chemical Industries, Ltd.) and 1.25 μl of 2-mercaptoethanol (Bio-Rad Laboratories, Inc.) was added to each dispensed fluid and the resultant mixture was boiled for 5 minutes.
(§4) The film was immersed in 10 mM Tris buffer solution including 0.8% NaCl added with 1% BSA (pH 7.4, 1% BSA+TBS) and was shaken at a room temperature for one hour. Then, the film was cleaned three times by 10 mM Tris buffer solution (pH 7.4, TBS) including 0.8% NaCl. Then, the film was immersed in biotin-labeled lectin solution (2 μg/ml) and was shaken at a room temperature for one hour. Then, the film was cleaned three times by TBS. Then, the film was immersed in the HRP label streptavidin solution at 1 μg/ml (Vector Laboratories) and was shaken at a room temperature for 30 minutes. After the film was cleaned three times by TBS, a POD immunostain set (Wako Pure Chemical Industries, Ltd.) was used to perform a staining test. The staining test is to detect glycoprotein by the western blotting using biotin-labeled lectin. FIG. 13 to FIG. 17 are photographs showing the following glycoproteins stained by PTL (FIG. 13), SRL (FIG. 14), AAL (FIG. 15), AOL (FIG. 16), or LCA (FIG. 17).
(§5) In FIG. 13 to FIG. 17, the lanes 0 to 6 correspond to the followings. Lane 1: thyroglobulin, lane 2: lactoferrin, lane 3: immune immunoglobulin, lane 4: transferrin, lane 5: α1-acidic glycoprotein, lane 6: invertase, lane 0: bovine serum albumin (control)

[1] = system: Immune-globulin G (human); conditions: (3) Immune-globulin G (human), N-linked glycan having α1→6 L-fucose; biotin-labeled lectin 2 μg/ml
Experimental: as §1, §2, §3, §4, §5

[2] = system: α1-acidic glycoprotein (human); conditions: (5) α1-acidic glycoprotein (human), N-linked glycan having α1→3 L-fucose; biotin-labeled lectin 2 μg/ml
Experimental: as §1, §2, §3, §4, §5

[3] = molecular target: Blood serum albumin (bovine) (Bos taurus, UniProt P02769); conditions: (O) Blood serum albumin (bovine), No sugar chain; biotin-labeled lectin 2 μg/ml
Experimental: as §1, §2, §3, §4, §5

Invertase (yeast) = molecular target: T1, Invertase (yeast); conditions: (6) Invertase (yeast), High mannose-type sugar chain; biotin-labeled lectin 2 μg/ml
Experimental: as §1, §2, §3, §4, §5

Lactoferrin (bovine) = Lactoferrin (bovine) (Bos taurus, UniProt P24627); conditions: (2) Lactoferrin (bovine), N-linked glycan having α1→6 L-fucose; biotin-labeled lectin 2 μg/ml
Experimental: as §1, §2, §3, §4, §5

Transferrin (human) = Transferrin (human) (Homo sapiens, UniProt P02787); conditions: (4) Transferrin (human), N-linked glycan not including α1→6 L-fucose; biotin-labeled lectin 2 μg/ml
Experimental: as §1, §2, §3, §4, §5

Thyroglobulin (pig), sequence (F1RRV3 20-2692): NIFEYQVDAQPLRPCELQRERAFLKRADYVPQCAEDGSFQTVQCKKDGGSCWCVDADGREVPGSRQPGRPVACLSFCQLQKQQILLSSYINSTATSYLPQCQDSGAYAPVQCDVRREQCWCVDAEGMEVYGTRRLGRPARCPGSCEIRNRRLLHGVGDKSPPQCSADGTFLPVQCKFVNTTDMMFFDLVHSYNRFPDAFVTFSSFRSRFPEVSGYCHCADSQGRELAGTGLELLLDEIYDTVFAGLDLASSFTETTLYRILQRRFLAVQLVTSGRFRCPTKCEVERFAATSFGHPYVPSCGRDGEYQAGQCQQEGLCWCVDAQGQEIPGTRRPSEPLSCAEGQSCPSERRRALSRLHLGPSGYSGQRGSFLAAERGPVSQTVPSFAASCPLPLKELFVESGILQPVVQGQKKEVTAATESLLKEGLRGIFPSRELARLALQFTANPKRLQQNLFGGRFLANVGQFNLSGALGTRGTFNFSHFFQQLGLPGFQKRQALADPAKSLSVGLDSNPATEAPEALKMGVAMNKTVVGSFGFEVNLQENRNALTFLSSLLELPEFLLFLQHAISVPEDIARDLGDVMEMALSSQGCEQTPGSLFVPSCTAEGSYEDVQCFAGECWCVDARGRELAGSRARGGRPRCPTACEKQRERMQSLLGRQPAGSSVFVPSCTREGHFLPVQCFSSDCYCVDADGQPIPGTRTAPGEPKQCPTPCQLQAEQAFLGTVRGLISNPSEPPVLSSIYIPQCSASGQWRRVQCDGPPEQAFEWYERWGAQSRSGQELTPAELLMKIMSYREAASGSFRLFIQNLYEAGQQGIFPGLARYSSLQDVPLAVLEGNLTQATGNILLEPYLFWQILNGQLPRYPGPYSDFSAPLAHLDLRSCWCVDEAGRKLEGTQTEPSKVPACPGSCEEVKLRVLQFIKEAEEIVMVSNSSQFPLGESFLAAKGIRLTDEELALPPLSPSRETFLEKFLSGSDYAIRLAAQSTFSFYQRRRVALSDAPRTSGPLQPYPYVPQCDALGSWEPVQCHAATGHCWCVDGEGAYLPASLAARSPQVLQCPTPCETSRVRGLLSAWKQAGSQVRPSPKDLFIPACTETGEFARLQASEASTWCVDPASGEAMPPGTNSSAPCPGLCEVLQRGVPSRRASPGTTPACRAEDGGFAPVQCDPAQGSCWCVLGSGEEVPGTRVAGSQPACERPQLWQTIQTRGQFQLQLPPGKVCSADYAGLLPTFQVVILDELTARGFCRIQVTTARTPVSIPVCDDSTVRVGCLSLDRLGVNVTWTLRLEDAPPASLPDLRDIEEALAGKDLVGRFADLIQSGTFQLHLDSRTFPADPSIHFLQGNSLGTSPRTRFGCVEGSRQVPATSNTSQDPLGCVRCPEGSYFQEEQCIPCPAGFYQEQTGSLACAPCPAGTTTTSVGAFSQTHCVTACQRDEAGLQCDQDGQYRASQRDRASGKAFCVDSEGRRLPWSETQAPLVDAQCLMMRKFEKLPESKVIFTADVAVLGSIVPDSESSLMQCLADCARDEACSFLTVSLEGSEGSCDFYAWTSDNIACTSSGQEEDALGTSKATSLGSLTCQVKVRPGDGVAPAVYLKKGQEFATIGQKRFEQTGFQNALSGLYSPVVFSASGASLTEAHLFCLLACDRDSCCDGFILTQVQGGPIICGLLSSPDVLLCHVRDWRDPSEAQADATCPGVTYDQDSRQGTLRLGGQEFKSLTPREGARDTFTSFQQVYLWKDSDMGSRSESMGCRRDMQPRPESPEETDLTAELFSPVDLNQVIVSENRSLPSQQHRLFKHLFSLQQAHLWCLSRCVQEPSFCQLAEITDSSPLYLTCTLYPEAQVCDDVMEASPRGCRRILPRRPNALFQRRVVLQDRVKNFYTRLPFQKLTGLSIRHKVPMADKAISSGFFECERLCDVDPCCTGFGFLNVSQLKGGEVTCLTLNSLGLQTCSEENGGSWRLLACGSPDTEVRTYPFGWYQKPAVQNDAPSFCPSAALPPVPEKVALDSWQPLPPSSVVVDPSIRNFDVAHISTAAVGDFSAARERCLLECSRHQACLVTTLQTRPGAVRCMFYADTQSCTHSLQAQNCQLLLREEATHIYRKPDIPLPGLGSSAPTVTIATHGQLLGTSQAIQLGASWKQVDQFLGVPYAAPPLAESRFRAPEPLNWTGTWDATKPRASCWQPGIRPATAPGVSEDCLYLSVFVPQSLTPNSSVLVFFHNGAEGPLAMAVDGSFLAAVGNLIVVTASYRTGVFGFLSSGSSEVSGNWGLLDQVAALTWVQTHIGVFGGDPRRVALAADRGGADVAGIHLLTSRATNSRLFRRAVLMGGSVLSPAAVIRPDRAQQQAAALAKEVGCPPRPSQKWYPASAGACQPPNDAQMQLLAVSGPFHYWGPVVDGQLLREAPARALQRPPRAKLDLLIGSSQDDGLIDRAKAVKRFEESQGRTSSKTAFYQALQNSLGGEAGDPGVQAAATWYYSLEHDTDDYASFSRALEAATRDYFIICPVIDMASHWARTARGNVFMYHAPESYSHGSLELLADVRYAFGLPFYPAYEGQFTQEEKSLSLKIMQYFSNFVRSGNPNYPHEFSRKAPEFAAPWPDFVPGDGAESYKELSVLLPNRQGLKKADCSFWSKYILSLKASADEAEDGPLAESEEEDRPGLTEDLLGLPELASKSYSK
Lactoferrin (bovine), sequence (P24627 20-708): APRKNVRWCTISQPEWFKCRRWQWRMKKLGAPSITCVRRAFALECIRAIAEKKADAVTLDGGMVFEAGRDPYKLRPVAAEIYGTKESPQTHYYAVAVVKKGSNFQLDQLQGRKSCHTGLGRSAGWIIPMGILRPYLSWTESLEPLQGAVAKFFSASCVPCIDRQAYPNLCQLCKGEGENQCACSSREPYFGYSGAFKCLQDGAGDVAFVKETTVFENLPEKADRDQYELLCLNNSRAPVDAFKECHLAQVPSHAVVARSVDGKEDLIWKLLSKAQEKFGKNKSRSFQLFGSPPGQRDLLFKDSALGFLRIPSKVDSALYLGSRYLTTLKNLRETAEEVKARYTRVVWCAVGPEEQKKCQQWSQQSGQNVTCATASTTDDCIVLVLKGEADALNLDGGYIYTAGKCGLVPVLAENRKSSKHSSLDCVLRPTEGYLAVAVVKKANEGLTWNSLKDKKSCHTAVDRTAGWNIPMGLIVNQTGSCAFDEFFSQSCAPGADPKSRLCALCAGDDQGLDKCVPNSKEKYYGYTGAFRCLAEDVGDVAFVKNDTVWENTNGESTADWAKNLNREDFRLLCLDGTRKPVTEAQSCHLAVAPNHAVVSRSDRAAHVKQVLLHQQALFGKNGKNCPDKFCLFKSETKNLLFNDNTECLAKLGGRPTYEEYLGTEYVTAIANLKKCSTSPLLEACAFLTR
Blood serum albumin (bovine), sequence (P02769 25-607): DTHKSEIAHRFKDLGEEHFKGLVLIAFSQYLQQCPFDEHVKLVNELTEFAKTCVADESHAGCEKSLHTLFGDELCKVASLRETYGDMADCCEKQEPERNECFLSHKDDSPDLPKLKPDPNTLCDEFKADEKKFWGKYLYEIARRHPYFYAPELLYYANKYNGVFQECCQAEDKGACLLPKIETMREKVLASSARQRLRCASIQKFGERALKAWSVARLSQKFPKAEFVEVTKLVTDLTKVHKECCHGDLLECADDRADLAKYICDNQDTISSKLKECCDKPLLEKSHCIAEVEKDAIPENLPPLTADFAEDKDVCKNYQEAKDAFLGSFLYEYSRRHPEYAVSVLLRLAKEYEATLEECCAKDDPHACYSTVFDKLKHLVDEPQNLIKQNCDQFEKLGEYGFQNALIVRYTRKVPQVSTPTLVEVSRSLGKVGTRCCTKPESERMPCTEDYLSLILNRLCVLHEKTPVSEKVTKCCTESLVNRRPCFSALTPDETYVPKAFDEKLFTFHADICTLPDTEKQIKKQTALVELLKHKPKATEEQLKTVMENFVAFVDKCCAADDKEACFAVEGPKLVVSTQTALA
Transferrin (human), sequence (P02787 20-698): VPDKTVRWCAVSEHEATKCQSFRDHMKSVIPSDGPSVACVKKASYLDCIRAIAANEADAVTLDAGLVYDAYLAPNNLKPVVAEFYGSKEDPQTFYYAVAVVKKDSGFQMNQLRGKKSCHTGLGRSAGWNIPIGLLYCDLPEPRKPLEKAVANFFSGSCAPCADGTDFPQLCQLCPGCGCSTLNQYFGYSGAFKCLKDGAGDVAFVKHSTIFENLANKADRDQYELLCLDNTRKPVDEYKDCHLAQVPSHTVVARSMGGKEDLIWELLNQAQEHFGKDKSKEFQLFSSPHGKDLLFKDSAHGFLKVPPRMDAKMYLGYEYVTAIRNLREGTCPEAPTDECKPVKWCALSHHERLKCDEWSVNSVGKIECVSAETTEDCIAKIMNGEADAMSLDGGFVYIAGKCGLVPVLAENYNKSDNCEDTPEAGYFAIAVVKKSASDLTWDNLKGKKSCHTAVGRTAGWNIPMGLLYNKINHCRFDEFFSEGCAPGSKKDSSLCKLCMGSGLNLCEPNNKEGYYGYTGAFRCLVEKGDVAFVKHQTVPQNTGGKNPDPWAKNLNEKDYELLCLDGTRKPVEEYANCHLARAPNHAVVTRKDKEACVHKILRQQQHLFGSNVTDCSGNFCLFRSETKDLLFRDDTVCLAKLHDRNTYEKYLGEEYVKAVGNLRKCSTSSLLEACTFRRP

Row | Molecule | detection of glycoprotein by Western blotting (Thyroglobulin (pig)) | detection of glycoprotein by Western blotting [1] | detection of glycoprotein by Western blotting [2] | detection of glycoprotein by Western blotting [3] | detection of glycoprotein by Western blotting (Invertase (yeast)) | detection of glycoprotein by Western blotting (Lactoferrin (bovine)) | detection of glycoprotein by Western blotting (Transferrin (human))
1 | Stropharia rugosoannulata lectin [SRL, novel L-fucose α1→6 specific lectin purified from the mushroom Stropharia rugosoannulata] | ◯ | ◯ | X | X | X | ◯ | X
2 | Aspergillus oryzae lectin [AOL, reference compound] | ◯ | ◯ | X | X | X | ◯ | X
3 | Pholiota terrestris lectin [PTL, novel L-fucose α1→6 specific lectin purified from the mushroom Pholiota terrestris] | ◯ | ◯ | X | X | X | ◯ | X
4 | B1 | ◯ | ◯ | X | X | X | ◯ | X
5 | B2 | ◯ | ◯ | X | X | ◯ | ◯ | X
